Paper PMC6965034 (2019)

B1: GST-tagged PAK1 (Y270-H545) (domain or fragment)
chain: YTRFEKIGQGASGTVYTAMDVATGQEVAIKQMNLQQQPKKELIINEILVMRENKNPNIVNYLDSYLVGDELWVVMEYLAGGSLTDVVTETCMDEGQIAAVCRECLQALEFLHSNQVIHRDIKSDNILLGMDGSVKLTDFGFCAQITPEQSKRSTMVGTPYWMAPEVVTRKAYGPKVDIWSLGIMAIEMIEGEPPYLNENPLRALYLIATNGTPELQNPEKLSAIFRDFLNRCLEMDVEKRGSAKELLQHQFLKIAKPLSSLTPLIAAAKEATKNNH

Experiments:
Experiment in all cases: ITC
sortilin-cd peptide A = sortilin-cd peptide A (human)
sortilin-cd peptide B = sortilin-cd peptide B (human)
sortilin-cd peptide C = sortilin-cd peptide C (human)
[1] = molecular target: B1

Sequence of sortilin-cd peptide A (human) (Q13153 270-545): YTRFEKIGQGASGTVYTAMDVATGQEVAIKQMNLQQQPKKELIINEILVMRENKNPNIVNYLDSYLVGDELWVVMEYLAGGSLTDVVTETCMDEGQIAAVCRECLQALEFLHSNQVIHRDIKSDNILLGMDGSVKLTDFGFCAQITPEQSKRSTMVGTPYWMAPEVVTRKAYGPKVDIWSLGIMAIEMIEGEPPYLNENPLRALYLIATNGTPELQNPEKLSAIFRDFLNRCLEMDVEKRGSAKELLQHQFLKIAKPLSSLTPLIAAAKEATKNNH
Sequence of sortilin-cd peptide C (human) (Q13153 270-545): as above
Sequence of sortilin-cd peptide B (human) (Q13153 270-545): as above

Kd (sortilin-cd peptide A) [µM]	Kd (sortilin-cd peptide B) [µM]	Kd (sortilin-cd peptide C) [µM]	Kd [1] [µM]	Binder
14.1	12.6	3.6		B1
			1.8	complete sortilin cytoplasmic domain (K779-E831), GST tag removed (domain or fragment) KKYVCGGRFLVHRYSVLQQHAEANGVDGVDALDTASHTNKSGYHDDSDEDLLE
